Source: US20160272683A1 (Novo Nordisk, published 2016)
Numbered stars: 1 amine (or outer) side, 2 acyl side, 3 side chain; on linkers, the order of the positions; unused ones are H or OH. Side chains are listed from the residue outwards. Ends that are not written are not given here. * marks the point of attachment. C20 diacid = O=C(O)CCCCCCCCCCCCCCCCCCC(=O)*; C18 diacid = O=C(O)CCCCCCCCCCCCCCCCC(=O)*; C16 diacid = O=C(O)CCCCCCCCCCCCCCC(=O)*; γGlu = O=C(O)[C@H](CCC(=O)[*:2])N[*:1]; C14 diacid = O=C(O)CCCCCCCCCCCCC(=O)*; AEEA = NCCOCCOCC(=O)O

T1: human calcitonin receptor (human, UniProt P30988 25-474)
T1 construct: whole, on cells; Assay VII: membranes on SPA beads; also called hCT-R; hCTR
T1 sequence (looked up): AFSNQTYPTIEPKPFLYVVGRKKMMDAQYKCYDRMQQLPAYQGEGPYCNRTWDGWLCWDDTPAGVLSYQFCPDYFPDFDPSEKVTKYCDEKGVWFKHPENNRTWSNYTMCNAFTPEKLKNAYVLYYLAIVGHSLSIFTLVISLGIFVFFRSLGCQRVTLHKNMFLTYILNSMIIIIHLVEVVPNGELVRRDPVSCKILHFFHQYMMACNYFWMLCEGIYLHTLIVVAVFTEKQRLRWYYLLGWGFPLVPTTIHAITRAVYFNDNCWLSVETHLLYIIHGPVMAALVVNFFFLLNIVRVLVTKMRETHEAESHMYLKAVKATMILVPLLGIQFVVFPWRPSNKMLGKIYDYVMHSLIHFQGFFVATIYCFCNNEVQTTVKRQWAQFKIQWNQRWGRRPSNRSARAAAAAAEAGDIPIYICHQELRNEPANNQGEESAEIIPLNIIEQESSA

T2: human amylin receptor (amylin 3(a) receptor: human calcitonin receptor with RAMP-3) (human, UniProt P30988 25-474; O60896 24-148, limits assumed)
T2 construct: whole, on cells; Assay V: membranes of the Amylin 3(a)/CRE-luc BHK cells on SPA beads; also called hAmylin-R
T2 sequence (looked up) 1: T1 sequence (looked up)
T2 sequence (looked up) 2: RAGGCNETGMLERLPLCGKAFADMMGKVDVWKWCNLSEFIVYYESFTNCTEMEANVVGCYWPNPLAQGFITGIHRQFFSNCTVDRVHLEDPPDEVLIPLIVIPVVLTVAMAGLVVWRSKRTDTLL

B1: [N-terminal(C20 diacid-gGlu), des1, 9T, 21S, 23Y, 30S, 31G, 33Y]mimylin (peptide)
peptide: {C20 diacid-γGlu}-ASELSTATLGRLSAELHELSTYPRTETGSGSY-NH2
SMILES: CC(C)C[C@H](NC(=O)[C@H](CCCNC(=N)N)NC(=O)CNC(=O)[C@H](CC(C)C)NC(=O)[C@@H](NC(=O)[C@H](C)NC(=O)[C@@H](NC(=O)[C@H](CO)NC(=O)[C@H](CC(C)C)NC(=O)[C@H](CCC(=O)O)NC(=O)[C@H](CO)NC(=O)[C@H](C)NC(=O)CC[C@H](NC(=O)CCCCCCCCCCCCCCCCCCC(=O)O)C(=O)O)[C@@H](C)O)[C@@H](C)O)C(=O)N[C@@H](CO)C(=O)N[C@@H](C)C(=O)N[C@@H](CCC(=O)O)C(=O)N[C@@H](CC(C)C)C(=O)N[C@@H](Cc1c[nH]cn1)C(=O)N[C@@H](CCC(=O)O)C(=O)N[C@@H](CC(C)C)C(=O)N[C@@H](CO)C(=O)N[C@H](C(=O)N[C@@H](Cc1ccc(O)cc1)C(=O)N1CCC[C@H]1C(=O)N[C@@H](CCCNC(=N)N)C(=O)N[C@H](C(=O)N[C@@H](CCC(=O)O)C(=O)N[C@H](C(=O)NCC(=O)N[C@@H](CO)C(=O)NCC(=O)N[C@@H](CO)C(=O)N[C@@H](Cc1ccc(O)cc1)C(N)=O)[C@@H](C)O)[C@@H](C)O)[C@@H](C)O
B2: [des1, 4K(C20 diacid-gGlu), 30S, 31G]mimylin (peptide)
peptide: ASK([γGlu-C20 diacid])LSTAALGRLSAELHELATLPRTETGSGSP-NH2
modifications: N-terminus assumed
SMILES: CC(C)C[C@H](NC(=O)[C@H](C)NC(=O)[C@H](C)NC(=O)[C@@H](NC(=O)[C@H](CO)NC(=O)[C@H](CC(C)C)NC(=O)[C@H](CCCCNC(=O)CC[C@H](NC(=O)CCCCCCCCCCCCCCCCCCC(=O)O)C(=O)O)NC(=O)[C@H](CO)NC(=O)[C@H](C)N)[C@@H](C)O)C(=O)NCC(=O)N[C@@H](CCCNC(=N)N)C(=O)N[C@@H](CC(C)C)C(=O)N[C@@H](CO)C(=O)N[C@@H](C)C(=O)N[C@@H](CCC(=O)O)C(=O)N[C@@H](CC(C)C)C(=O)N[C@@H](Cc1c[nH]cn1)C(=O)N[C@@H](CCC(=O)O)C(=O)N[C@@H](CC(C)C)C(=O)N[C@@H](C)C(=O)N[C@H](C(=O)N[C@@H](CC(C)C)C(=O)N1CCC[C@H]1C(=O)N[C@@H](CCCNC(=N)N)C(=O)N[C@H](C(=O)N[C@@H](CCC(=O)O)C(=O)N[C@H](C(=O)NCC(=O)N[C@@H](CO)C(=O)NCC(=O)N[C@@H](CO)C(=O)N1CCC[C@H]1C(N)=O)[C@@H](C)O)[C@@H](C)O)[C@@H](C)O
B3: [N-terminal(C18 diacid-gGlu), des1, 4G, 15Q, 21Q, 23Y, 30S, 31G, 32T, 33Y]mimylin (peptide)
peptide: {C18 diacid-γGlu}-ASGLSTAALGRLSQELHELQTYPRTETGSGTY-NH2
SMILES: CC(C)C[C@H](NC(=O)CNC(=O)[C@H](CO)NC(=O)[C@H](C)NC(=O)CC[C@H](NC(=O)CCCCCCCCCCCCCCCCC(=O)O)C(=O)O)C(=O)N[C@@H](CO)C(=O)N[C@H](C(=O)N[C@@H](C)C(=O)N[C@@H](C)C(=O)N[C@@H](CC(C)C)C(=O)NCC(=O)N[C@@H](CCCNC(=N)N)C(=O)N[C@@H](CC(C)C)C(=O)N[C@@H](CO)C(=O)N[C@@H](CCC(N)=O)C(=O)N[C@@H](CCC(=O)O)C(=O)N[C@@H](CC(C)C)C(=O)N[C@@H](Cc1c[nH]cn1)C(=O)N[C@@H](CCC(=O)O)C(=O)N[C@@H](CC(C)C)C(=O)N[C@@H](CCC(N)=O)C(=O)N[C@H](C(=O)N[C@@H](Cc1ccc(O)cc1)C(=O)N1CCC[C@H]1C(=O)N[C@@H](CCCNC(=N)N)C(=O)N[C@H](C(=O)N[C@@H](CCC(=O)O)C(=O)N[C@H](C(=O)NCC(=O)N[C@@H](CO)C(=O)NCC(=O)N[C@H](C(=O)N[C@@H](Cc1ccc(O)cc1)C(N)=O)[C@@H](C)O)[C@@H](C)O)[C@@H](C)O)[C@@H](C)O)[C@@H](C)O
B4: [N-terminal(C20 diacid-gGlu), des1, 4G, 15Q, 21Q, 23Y, 30S, 31Q, 32T, 33Y]mimylin (peptide)
peptide: {C20 diacid-γGlu}-ASGLSTAALGRLSQELHELQTYPRTETGSQTY-NH2
SMILES: CC(C)C[C@H](NC(=O)CNC(=O)[C@H](CO)NC(=O)[C@H](C)NC(=O)CC[C@H](NC(=O)CCCCCCCCCCCCCCCCCCC(=O)O)C(=O)O)C(=O)N[C@@H](CO)C(=O)N[C@H](C(=O)N[C@@H](C)C(=O)N[C@@H](C)C(=O)N[C@@H](CC(C)C)C(=O)NCC(=O)N[C@@H](CCCNC(=N)N)C(=O)N[C@@H](CC(C)C)C(=O)N[C@@H](CO)C(=O)N[C@@H](CCC(N)=O)C(=O)N[C@@H](CCC(=O)O)C(=O)N[C@@H](CC(C)C)C(=O)N[C@@H](Cc1c[nH]cn1)C(=O)N[C@@H](CCC(=O)O)C(=O)N[C@@H](CC(C)C)C(=O)N[C@@H](CCC(N)=O)C(=O)N[C@H](C(=O)N[C@@H](Cc1ccc(O)cc1)C(=O)N1CCC[C@H]1C(=O)N[C@@H](CCCNC(=N)N)C(=O)N[C@H](C(=O)N[C@@H](CCC(=O)O)C(=O)N[C@H](C(=O)NCC(=O)N[C@@H](CO)C(=O)N[C@@H](CCC(N)=O)C(=O)N[C@H](C(=O)N[C@@H](Cc1ccc(O)cc1)C(N)=O)[C@@H](C)O)[C@@H](C)O)[C@@H](C)O)[C@@H](C)O)[C@@H](C)O
B5: [N-terminal(C20 diacid-gGlu-3xOEG), des1, 30S, 31G]mimylin (peptide)
peptide: {C20 diacid-γGlu-AEEA-AEEA-AEEA}-ASELSTAALGRLSAELHELATLPRTETGSGSP-NH2
notes: mimylin derivative; des1 = residue 1 deleted; also called Ex. #43; 43
B6: [N-terminal(C20 diacid-gGlu-5xOEG), des1, 30S, 31G]mimylin (peptide)
peptide: {C20 diacid-γGlu-AEEA-AEEA-AEEA-AEEA-AEEA}-ASELSTAALGRLSAELHELATLPRTETGSGSP-NH2
notes: mimylin derivative; des1 = residue 1 deleted; also called Ex. #45; 45
B7: [N-terminal(C16 diacid), des1, 30S, 31G]mimylin (peptide)
peptide: {C16 diacid}-ASELSTAALGRLSAELHELATLPRTETGSGSP-NH2
notes: mimylin derivative; des1 = residue 1 deleted; also called Ex. #49; 49
B8: [N-terminal(C16 diacid-gGlu), des1, 30S, 31G]mimylin (peptide)
peptide: {C16 diacid-γGlu}-ASELSTAALGRLSAELHELATLPRTETGSGSP-NH2
notes: mimylin derivative; des1 = residue 1 deleted; also called Ex. #47; 47
B9: [N-terminal(C14 diacid-gGlu), des1, 30S, 31G]mimylin (peptide)
peptide: {C14 diacid-γGlu}-ASELSTAALGRLSAELHELATLPRTETGSGSP-NH2
notes: mimylin derivative; des1 = residue 1 deleted; also called Ex. #50; 50
B10: [N-terminal(C18 diacid), des1, 30S, 31G]mimylin (peptide)
peptide: {C18 diacid}-ASELSTAALGRLSAELHELATLPRTETGSGSP-NH2
notes: mimylin derivative; des1 = residue 1 deleted; also called Ex. #48; 48
B11: [N-terminal(C14 diacid), des1, 30S, 31G]mimylin (peptide)
peptide: {C14 diacid}-ASELSTAALGRLSAELHELATLPRTETGSGSP-NH2
notes: mimylin derivative; des1 = residue 1 deleted; also called Ex. #51; 51
B12: [N-terminal(C20 diacid-gGlu), 1A, 23Y, 30S, 31G]mimylin (peptide)
peptide: {C20 diacid-γGlu}-AASELSTAALGRLSAELHELATYPRTETGSGSP-NH2
SMILES: CC(C)C[C@H](NC(=O)[C@H](C)NC(=O)[C@H](C)NC(=O)[C@@H](NC(=O)[C@H](CO)NC(=O)[C@H](CC(C)C)NC(=O)[C@H](CCC(=O)O)NC(=O)[C@H](CO)NC(=O)[C@H](C)NC(=O)[C@H](C)NC(=O)CC[C@H](NC(=O)CCCCCCCCCCCCCCCCCCC(=O)O)C(=O)O)[C@@H](C)O)C(=O)NCC(=O)N[C@@H](CCCNC(=N)N)C(=O)N[C@@H](CC(C)C)C(=O)N[C@@H](CO)C(=O)N[C@@H](C)C(=O)N[C@@H](CCC(=O)O)C(=O)N[C@@H](CC(C)C)C(=O)N[C@@H](Cc1c[nH]cn1)C(=O)N[C@@H](CCC(=O)O)C(=O)N[C@@H](CC(C)C)C(=O)N[C@@H](C)C(=O)N[C@H](C(=O)N[C@@H](Cc1ccc(O)cc1)C(=O)N1CCC[C@H]1C(=O)N[C@@H](CCCNC(=N)N)C(=O)N[C@H](C(=O)N[C@@H](CCC(=O)O)C(=O)N[C@H](C(=O)NCC(=O)N[C@@H](CO)C(=O)NCC(=O)N[C@@H](CO)C(=O)N1CCC[C@H]1C(N)=O)[C@@H](C)O)[C@@H](C)O)[C@@H](C)O
notes: mimylin derivative; also called Ex. #57; 57
B13: [N-terminal(C18 diacid-gGlu), des1, 30S, 31G]mimylin (peptide)
peptide: {C18 diacid-γGlu}-ASELSTAALGRLSAELHELATLPRTETGSGSP-NH2
notes: mimylin derivative; des1 = residue 1 deleted; also called Ex. #46; 46

target: rat calcitonin receptor (rat) (UniProt P32214); assay: SPA competition vs 125I-calcitonin, membranes with rat CTR (Assay VIII)

Row | Molecule | IC50
1 | B1 | 0.069 nM
2 | {C14 diacid}-ASELSTAALGRLSAELHELATLPRTETGSGSP-NH2 | 0.123 nM
3 | B2 | 0.114 nM
4 | B3 | 0.013 nM
5 | B4 | 0.012 nM

target: rat amylin receptor (rat calcitonin receptor with rat RAMP 3) (rat) (UniProt P32214); assay: SPA competition vs 125I-rat amylin, membranes with rat CTR + rat RAMP3 (Assay VI)

Row | Molecule | IC50
6 | [N-terminal(C20 diacid-gGlu-2xOEG), des1, 4G, 9V, 15Q, 21Q, 23Y, 30S, 31G, 32T, 33Y]mimylin (peptide) | 0.029 nM
7 | B1 | 0.045 nM
8 | B3 | 0.013 nM
9 | B4 | 0.078 nM

target: T1, human calcitonin receptor; assay: SPA competition vs 125I-calcitonin, membranes with human CTR (Assay VII)
Method in brief: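 SPA competition on membranes from BHK tk'ts 13 cells stably expressing human calcitonin receptor plus CRE-luciferase reporter; membranes 35 ng/μL final with 0.05 mg/well beads.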

Row | Molecule | IC50
10 | B5 | 0.05 nM
11 | B6 | 0.112 nM
12 | B7 | 0.011 nM
13 | B8 | 0.024 nM
14 | B9 | 0.023 nM
15 | B10 | 0.034 nM
16 | B11 | 0.14 nM
17 | B12 | 0.108 nM
18 | B13 | 0.084 nM

target: T2, human amylin receptor (amylin 3(a) …); assay: SPA competition vs 125I-rat amylin, membranes with human CTR + RAMP-3 (Assay V)

Row | Molecule | IC50
19 | B5 | 0.164 nM
20 | B6 | 0.389 nM
21 | B7 | 0.015 nM
22 | B8 | 0.037 nM
23 | B9 | 0.054 nM
24 | B10 | 0.077 nM
25 | B11 | 0.773 nM
26 | B12 | 0.124 nM
27 | B13 | 0.516 nM
